Patent US20190040102A1 (CDRD VENTURES, published 2019)
Starred links: 1 amine or outer side, 2 acyl side, 3 side chain; linkers in the order of their positions; H or OH if unused. Positions of bridges follow the written chain, without caps; N, C: chain ends. Non-standard residues stand in square brackets, D forms with d. *: point of attachment. Tyr(Me) = 4-OMe-Phe, COc1ccc(C[C@H](N[*:1])C(=O)[*:2])cc1; dPhe(4-CONH2) = NC(=O)c1ccc(C[C@@H](N)C(=O)O)cc1; dTyr(Me) = COc1ccc(C[C@@H](N[*:1])C(=O)[*:2])cc1; Phe(4-Cl) = N[C@@H](Cc1ccc(Cl)cc1)C(=O)O; dPhe(4-Cl) = N[C@H](Cc1ccc(Cl)cc1)C(=O)O; Bz = O=C(c1ccccc1)*; βAla = NCCC(=O)O

B1: Compound 8: H-Cpa-cyclo[DCys-Tyr-D-4-(Gly)Aph-Lys-Thr-Cys]-DTyr-NH2 (peptide)
peptide: XXYXKTCX
HELM: PEPTIDE1{[N[C@@H](Cc1ccc(Cl)cc1)C(=O)[*:2]].[dC].Y.[O=C([C@@H](Cc1ccc(N[*:3])cc1)N[*:1])[*:2]].K.T.C.[dY].[am]}|PEPTIDE2{G}$PEPTIDE1,PEPTIDE2,4:R3-1:R2|PEPTIDE1,PEPTIDE1,2:R3-7:R3$$$V2.0
SMILES: C[C@@H](O)[C@@H]1NC(=O)[C@H](CCCCN)NC(=O)[C@@H](Cc2ccc(NC(=O)CN)cc2)NC(=O)[C@H](Cc2ccc(O)cc2)NC(=O)[C@H](NC(=O)[C@@H](N)Cc2ccc(Cl)cc2)CSSC[C@@H](C(=O)N[C@H](Cc2ccc(O)cc2)C(N)=O)NC1=O
B2: Compound 46: H-Cpa-cyclo[D-Cys-Tyr-D-Phe(4-carbamoyl)-Lys(Nε-Me)-Thr-Cys]-D-Cpa-NH2 (peptide)
peptide: H-[Phe(4-Cl)][dC]Y[dPhe(4-CONH2)]K(Me)TC[dPhe(4-Cl)]-NH2
modifications: disulfide 2-7
SMILES: CNCCCC[C@@H]1NC(=O)[C@@H](Cc2ccc(C(N)=O)cc2)NC(=O)[C@H](Cc2ccc(O)cc2)NC(=O)[C@H](NC(=O)[C@@H](N)Cc2ccc(Cl)cc2)CSSC[C@@H](C(=O)N[C@H](Cc2ccc(Cl)cc2)C(N)=O)NC(=O)[C@H]([C@@H](C)O)NC1=O
B3: Compound 50: Ph(CO)NHCH2(CO)-Cpa-cyclo[D-Cys-Tyr-D-Phe(4-carbamoyl)-Lys(Nε-Me)-Thr-Cys]-D-Tyr-NH2 (peptide)
peptide: Bz-G[Phe(4-Cl)][dC]Y[dPhe(4-CONH2)]K(Me)TC[dY]-NH2
modifications: disulfide 3-8
SMILES: CNCCCC[C@@H]1NC(=O)[C@@H](Cc2ccc(C(N)=O)cc2)NC(=O)[C@H](Cc2ccc(O)cc2)NC(=O)[C@H](NC(=O)[C@H](Cc2ccc(Cl)cc2)NC(=O)CNC(=O)c2ccccc2)CSSC[C@@H](C(=O)N[C@H](Cc2ccc(O)cc2)C(N)=O)NC(=O)[C@H]([C@@H](C)O)NC1=O
B4: Compound 48: H-Cpa-cyclo[D-Cys-Cpa-D-Phe(4-carbamoyl)-Lys(Nε-Me)-Thr-Cys]-D-Tyr-NH2 (peptide)
peptide: H-[Phe(4-Cl)][dC][Phe(4-Cl)][dPhe(4-CONH2)]K(Me)TC[dY]-NH2
modifications: disulfide 2-7
SMILES: CNCCCC[C@@H]1NC(=O)[C@@H](Cc2ccc(C(N)=O)cc2)NC(=O)[C@H](Cc2ccc(Cl)cc2)NC(=O)[C@H](NC(=O)[C@@H](N)Cc2ccc(Cl)cc2)CSSC[C@@H](C(=O)N[C@H](Cc2ccc(O)cc2)C(N)=O)NC(=O)[C@H]([C@@H](C)O)NC1=O
B5: Compound 40: H-Cpa-cyclo[DCys-Tyr-D-(4-carbamoyl)Phe-Lys-Thr-Cys]-DPhe-NH2 (peptide)
peptide: XXYXKTCX
HELM: PEPTIDE1{[N[C@@H](Cc1ccc(Cl)cc1)C(=O)[*:2]].[dC].Y.[NC(=O)c1ccc(C[C@@H](N[*:1])C(=O)[*:2])cc1].K.T.C.[dF].[am]}$PEPTIDE1,PEPTIDE1,2:R3-7:R3$$$V2.0
SMILES: C[C@@H](O)[C@@H]1NC(=O)[C@H](CCCCN)NC(=O)[C@@H](Cc2ccc(C(N)=O)cc2)NC(=O)[C@H](Cc2ccc(O)cc2)NC(=O)[C@H](NC(=O)[C@@H](N)Cc2ccc(Cl)cc2)CSSC[C@@H](C(=O)N[C@H](Cc2ccccc2)C(N)=O)NC1=O
B6: Compound 49: H-βAla-Cpa-cyclo[DCys-Tyr-DPhe(4-CONH2)-Lys(Me)-Thr-Cys]-DTyr-NH2 (peptide)
peptide: H-[βAla][Phe(4-Cl)][dC]Y[dPhe(4-CONH2)]K(Me)TC[dY]-NH2
modifications: disulfide 3-8
SMILES: CNCCCC[C@@H]1NC(=O)[C@@H](Cc2ccc(C(N)=O)cc2)NC(=O)[C@H](Cc2ccc(O)cc2)NC(=O)[C@H](NC(=O)[C@H](Cc2ccc(Cl)cc2)NC(=O)CCN)CSSC[C@@H](C(=O)N[C@H](Cc2ccc(O)cc2)C(N)=O)NC(=O)[C@H]([C@@H](C)O)NC1=O
B7: Compound 42: H-Cpa-cyclo[DCys-Tyr-D-(4-carbamoyl)Phe-Lys-Thr-Cys]-4-Cl-D-Phe-NH2 (peptide)
peptide: H-[Phe(4-Cl)][dC]Y[dPhe(4-CONH2)]KTC[dPhe(4-Cl)]-NH2
modifications: disulfide 2-7
SMILES: C[C@@H](O)[C@@H]1NC(=O)[C@H](CCCCN)NC(=O)[C@@H](Cc2ccc(C(N)=O)cc2)NC(=O)[C@H](Cc2ccc(O)cc2)NC(=O)[C@H](NC(=O)[C@@H](N)Cc2ccc(Cl)cc2)CSSC[C@@H](C(=O)N[C@H](Cc2ccc(Cl)cc2)C(N)=O)NC1=O
B8: Compound 44: H-Cpa-cyclo[DCys-Tyr-D-(4-carbamoyl)Phe-Lys-Thr-Cys]-4-OMe-D-Phe-NH2 (peptide)
peptide: H-[Phe(4-Cl)][dC]Y[dPhe(4-CONH2)]KTC[dTyr(Me)]-NH2
modifications: disulfide 2-7
SMILES: COc1ccc(C[C@@H](NC(=O)[C@@H]2CSSC[C@@H](NC(=O)[C@@H](N)Cc3ccc(Cl)cc3)C(=O)N[C@@H](Cc3ccc(O)cc3)C(=O)N[C@H](Cc3ccc(C(N)=O)cc3)C(=O)N[C@@H](CCCCN)C(=O)N[C@@H]([C@@H](C)O)C(=O)N2)C(N)=O)cc1
B9: Compound 41: H-Cpa-cyclo[DCys-Phe-D-(4-carbamoyl)Phe-Lys-Thr-Cys]-DPhe-NH2 (peptide)
peptide: XXFXKTCX
HELM: PEPTIDE1{[N[C@@H](Cc1ccc(Cl)cc1)C(=O)[*:2]].[dC].F.[NC(=O)c1ccc(C[C@@H](N[*:1])C(=O)[*:2])cc1].K.T.C.[dF].[am]}$PEPTIDE1,PEPTIDE1,2:R3-7:R3$$$V2.0
SMILES: C[C@@H](O)[C@@H]1NC(=O)[C@H](CCCCN)NC(=O)[C@@H](Cc2ccc(C(N)=O)cc2)NC(=O)[C@H](Cc2ccccc2)NC(=O)[C@H](NC(=O)[C@@H](N)Cc2ccc(Cl)cc2)CSSC[C@@H](C(=O)N[C@H](Cc2ccccc2)C(N)=O)NC1=O
B10: Compound 47: H-Cpa-cyclo[D-Cys-Cpa-D-Phe(4-carbamoyl)-Lys(Nε-Me)-Thr-Cys]-D-Cpa-NH2 (peptide)
peptide: H-[Phe(4-Cl)][dC][Phe(4-Cl)][dPhe(4-CONH2)]K(Me)TC[dPhe(4-Cl)]-NH2
modifications: disulfide 2-7
SMILES: CNCCCC[C@@H]1NC(=O)[C@@H](Cc2ccc(C(N)=O)cc2)NC(=O)[C@H](Cc2ccc(Cl)cc2)NC(=O)[C@H](NC(=O)[C@@H](N)Cc2ccc(Cl)cc2)CSSC[C@@H](C(=O)N[C@H](Cc2ccc(Cl)cc2)C(N)=O)NC(=O)[C@H]([C@@H](C)O)NC1=O
B11: Compound 45: H-Cpa-cyclo[DCys-4-OMe-Phe-D-(4-carbamoyl)Phe-Lys-Thr-Cys]-4-OMe-D-Phe-NH2 (peptide)
peptide: H-[Phe(4-Cl)][dC][Tyr(Me)][dPhe(4-CONH2)]KTC[dTyr(Me)]-NH2
modifications: disulfide 2-7
SMILES: COc1ccc(C[C@@H]2NC(=O)[C@H](NC(=O)[C@@H](N)Cc3ccc(Cl)cc3)CSSC[C@@H](C(=O)N[C@H](Cc3ccc(OC)cc3)C(N)=O)NC(=O)[C@H]([C@@H](C)O)NC(=O)[C@H](CCCCN)NC(=O)[C@@H](Cc3ccc(C(N)=O)cc3)NC2=O)cc1
B12: Compound 39: H-Cpa-cyclo[Cys-Tyr-D-(4-carbamoyl)Phe-Lys-Thr-Cys]-DTyr-NH2 (peptide)
peptide: XCYXKTCX
HELM: PEPTIDE1{[N[C@@H](Cc1ccc(Cl)cc1)C(=O)[*:2]].C.Y.[NC(=O)c1ccc(C[C@@H](N[*:1])C(=O)[*:2])cc1].K.T.C.[dY].[am]}$PEPTIDE1,PEPTIDE1,2:R3-7:R3$$$V2.0
SMILES: C[C@@H](O)[C@@H]1NC(=O)[C@H](CCCCN)NC(=O)[C@@H](Cc2ccc(C(N)=O)cc2)NC(=O)[C@H](Cc2ccc(O)cc2)NC(=O)[C@@H](NC(=O)[C@@H](N)Cc2ccc(Cl)cc2)CSSC[C@@H](C(=O)N[C@H](Cc2ccc(O)cc2)C(N)=O)NC1=O
B13: Compound 43: H-Cpa-cyclo[DCys-4-Cl-Phe-D-(4-carbamoyl)Phe-Lys-Thr-Cys]-4-Cl-D-Phe-NH2 (peptide)
peptide: H-[Phe(4-Cl)][dC][Phe(4-Cl)][dPhe(4-CONH2)]KTC[dPhe(4-Cl)]-NH2
modifications: disulfide 2-7
SMILES: C[C@@H](O)[C@@H]1NC(=O)[C@H](CCCCN)NC(=O)[C@@H](Cc2ccc(C(N)=O)cc2)NC(=O)[C@H](Cc2ccc(Cl)cc2)NC(=O)[C@H](NC(=O)[C@@H](N)Cc2ccc(Cl)cc2)CSSC[C@@H](C(=O)N[C@H](Cc2ccc(Cl)cc2)C(N)=O)NC1=O
B14: Compound 38: H-Cpa-cyclo[DCys-4-OMe-Phe-D-(4-carbamoyl)Phe-Lys-Thr-Cys]-DTyr-NH2 (peptide)
peptide: H-[Phe(4-Cl)][dC][Tyr(Me)][dPhe(4-CONH2)]KTC[dY]-NH2
modifications: disulfide 2-7
SMILES: COc1ccc(C[C@@H]2NC(=O)[C@H](NC(=O)[C@@H](N)Cc3ccc(Cl)cc3)CSSC[C@@H](C(=O)N[C@H](Cc3ccc(O)cc3)C(N)=O)NC(=O)[C@H]([C@@H](C)O)NC(=O)[C@H](CCCCN)NC(=O)[C@@H](Cc3ccc(C(N)=O)cc3)NC2=O)cc1

Each binder was assayed against somatostatin receptor SSTR3 (UniProt P32745 1-418) (assay: cell-based or functional assay).
Chain of somatostatin receptor SSTR3 (P32745 whole entry): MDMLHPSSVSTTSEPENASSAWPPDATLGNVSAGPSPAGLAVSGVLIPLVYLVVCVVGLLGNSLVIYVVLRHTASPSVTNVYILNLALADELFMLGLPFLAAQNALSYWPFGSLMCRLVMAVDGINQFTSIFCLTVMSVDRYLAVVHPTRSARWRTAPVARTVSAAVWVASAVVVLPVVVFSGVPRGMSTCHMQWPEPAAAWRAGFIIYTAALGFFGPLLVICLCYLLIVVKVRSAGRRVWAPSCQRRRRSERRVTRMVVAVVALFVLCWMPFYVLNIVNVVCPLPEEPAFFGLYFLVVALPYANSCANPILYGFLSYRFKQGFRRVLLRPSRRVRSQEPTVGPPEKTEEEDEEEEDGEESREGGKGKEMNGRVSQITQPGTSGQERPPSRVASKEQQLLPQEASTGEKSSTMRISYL
With H-[Phe(4-Cl)][dC]Y[dPhe(4-acetamidomethyl)]KTC[dY]-NH2 (disulfide 2-7) [Compound 6: H-Cpa-cyclo[DCys-Tyr-D-(4-acetamidomethyl)Phe-Lys-Thr-Cys]-DTyr-NH2] the “IC50 (PathHunter β-Arrestin, antagonist mode)” value (shortened to “IC50”) was over 1000 nM.
For B1, the “IC50” value was over 1000 nM.
With H-[Phe(4-Cl)][dC]Y[dPhe(4-aminomethyl)]KTC[dY]-NH2 (disulfide 2-7) [Compound 5: H-Cpa-cyclo[DCys-Tyr-D-(4-aminomethyl)Phe-Lys-Thr-Cys]-DTyr-NH2] the “IC50” value was over 1000 nM.

Each binder was assayed against somatostatin receptor type 2 (SSTR2) (UniProt P30874 1-369) (assay: cell-based or functional assay).
Chain of somatostatin receptor type 2 (SSTR2) (P30874 whole entry): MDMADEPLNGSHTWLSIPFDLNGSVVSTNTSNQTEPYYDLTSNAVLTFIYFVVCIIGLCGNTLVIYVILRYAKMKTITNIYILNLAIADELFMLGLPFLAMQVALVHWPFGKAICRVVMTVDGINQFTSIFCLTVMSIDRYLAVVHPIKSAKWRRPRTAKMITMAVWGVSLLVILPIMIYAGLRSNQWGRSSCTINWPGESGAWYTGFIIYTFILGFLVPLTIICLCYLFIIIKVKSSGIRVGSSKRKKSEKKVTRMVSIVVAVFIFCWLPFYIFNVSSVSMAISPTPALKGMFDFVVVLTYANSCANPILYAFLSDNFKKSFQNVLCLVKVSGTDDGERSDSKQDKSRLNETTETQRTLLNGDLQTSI
For H-[Phe(4-Cl)][dC]Y[dPhe(4-acetamidomethyl)]KTC[dY]-NH2 (disulfide 2-7) [Compound 6: H-Cpa-cyclo[DCys-Tyr-D-(4-acetamidomethyl)Phe-Lys-Thr-Cys]-DTyr-NH2], the “IC50” value was 166 nM.
With {3,3‑dimethylbutanoyl}-[Phe(4-Cl)][dC]Y[dPhe(4-CONH2)]K(Me)TC[dY]-NH2 (disulfide 2-7) [Compound 52: t-BuCH2(CO)-Cpa-cyclo[D-Cys-Tyr-D-Phe(4-carbamoyl)-Lys(Nε-Me)-Thr-Cys]-D-Tyr-NH2] the “IC50” value was 1.73 nM.
With B2 the “IC50” value was 0.398 nM.
In the case of B3, the “IC50” value is reported as 1.11 nM.
For B4, the “IC50” value was 1.31 nM.
For succinamoyl-[Phe(4-Cl)][dC]Y[dPhe(4-CONH2)]K(Me)TC[dY]-NH2 (disulfide 2-7) [Compound 54: H2N(CO)(CH2)2(CO)-Cpa-cyclo[D-Cys-Tyr-D-Phe(4-carbamoyl)-Lys(Nε-Me)-Thr-Cys]-D-Tyr-NH2], the “IC50” value was 2.33 nM.
B5 was tested, and the “IC50” value was 16.2 nM.
In the case of B6, the “IC50” value is reported as 2.86 nM.
B7 was tested, and the “IC50” value was 9.84 nM.
In the case of B8, the “IC50” value is reported as 10.7 nM.
For picolinoyl-[Phe(4-Cl)][dC]Y[dPhe(4-CONH2)]K(Me)TC[dY]-NH2 (disulfide 2-7) [Compound 53: 2-Pyridyl(CO)-Cpa-cyclo[D-Cys-Tyr-D-Phe(4-carbamoyl)-Lys(Nε-Me)-Thr-Cys]-D-Tyr-NH2], the “IC50” value was 4.28 nM.
For B9, the “IC50” value was 24.4 nM.
With B1 the “IC50” value was 84 nM.
B10 was tested, and the “IC50” value was 1.51 nM.
With H-[Phe(4-Cl)][dC]Y[dPhe(4-aminomethyl)]KTC[dY]-NH2 (disulfide 2-7) [Compound 5: H-Cpa-cyclo[DCys-Tyr-D-(4-aminomethyl)Phe-Lys-Thr-Cys]-DTyr-NH2] the “IC50” value was 213 nM.
For B11, the “IC50” value was 14.6 nM.
In the case of B12, the “IC50” value is reported as over 1000 nM.
In the case of B13, the “IC50” value is reported as 25.6 nM.
In the case of {2‑(phenylsulfonyl)acetyl}-[Phe(4-Cl)][dC]Y[dPhe(4-CONH2)]K(Me)TC[dY]-NH2 (disulfide 2-7) [Compound 51: PhSO2CH2(CO)-Cpa-cyclo[D-Cys-Tyr-D-Phe(4-carbamoyl)-Lys(Nε-Me)-Thr-Cys]-D-Tyr-NH2], the “IC50” value is reported as 1.45 nM.
With B14 the “IC50” value was 24.4 nM.
